Assay results from patent publication US20090053745A1 (RUTGERS THE STATE UNIVERSITY OF NEW JERSEY, published 2009).

B1: GST-snapin (first 68 amino acids) (other)
chain: MAGAGSAAVSGAGTPVAGPTGRDLFAEGLLEFLRPAVQQLDSHVHAVRESQVELREQIDNLATELCRI
notes: also called snapin(1-68); N-terminal half of snapin; not shown: glutathione S-transferase (GST) fusion partner
B2: snapin (endogenous, rat brain extract) (other, UniProt P60192 2-136, looked up)
chain: AAAGSAAVSGAGTPVAGPTGRDLFAEGLLEFLRPAVQQLDSHVHAVRESQVELREQIDNLATELCRINEDQKVALDLDPYVKKLLNARRRVVLVNNILQNAQERLRRLNHSVAKETARRRAMLDSGVYPPGSPSK
notes: The smaller band may be a degradation product or a modified snapin

Legend:
[1] = target: T1, cypin (endogenous, rat brain extract) (rat, UniProt Q9WTT6 1-454); assay: GST affinity chromatography with rat brain extract
T1 sequence (looked up): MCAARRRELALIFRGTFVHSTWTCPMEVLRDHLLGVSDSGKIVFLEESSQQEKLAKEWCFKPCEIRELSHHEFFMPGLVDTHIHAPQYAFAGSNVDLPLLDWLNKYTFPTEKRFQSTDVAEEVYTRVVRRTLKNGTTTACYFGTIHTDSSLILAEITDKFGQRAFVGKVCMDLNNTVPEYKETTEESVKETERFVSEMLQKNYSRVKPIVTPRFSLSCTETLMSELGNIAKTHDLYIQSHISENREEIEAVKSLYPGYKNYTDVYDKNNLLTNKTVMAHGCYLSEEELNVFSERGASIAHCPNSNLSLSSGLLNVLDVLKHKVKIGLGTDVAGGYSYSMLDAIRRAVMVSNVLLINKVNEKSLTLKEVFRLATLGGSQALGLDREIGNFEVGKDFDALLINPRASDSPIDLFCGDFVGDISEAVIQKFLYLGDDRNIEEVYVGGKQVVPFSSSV
Experimental: COS-7 cells were transfected with either pEGFP-C1-snapin, pDsRed-N1-snapin, pEGFP-C1-cypin or pDsRed-N1-cypin using Lipofectamine 2000 (Invitrogen, Carlsbad, Calif.) as described by manufacturer. Cells were washed with cold PBSE (phosphate buffered saline and 1 mM EDTA) and scraped into 5 mL of TEEN (25 mM Tris-HCl, pH 7.4, 1 mM EDTA, 1 mM EGTA, 100 mM NaCl). Cells were homogenized using a Potter-Elvehjem tissue grinder (20 strokes). Phenylmethylsulfonyl fluoride and DTT were added to lysates to final concentrations of 1 mM and cells were further lysed by passing the extract through a 25 gauge needle 5 times. Lysates were centrifuged at 12,000×g for 10 minutes at 4° C. Triton X-100 was added to the supernatant to a final concentration of 1% and incubated at 4° C. for 30 minutes. Lysates were centrifuged at 12,000×g for 10 minutes at 4° C. COS-7 cell lysates were incubated with glutathione-sepharose beads bound to 25 μg of the appropriate GST-fusion proteins for 1 hour at 4° C. Beads were washed three times with TEEN. Bound proteins were eluted with 0.5% SDS and 100 mM NaCl. Proteins were resolved on a 10% SDS polyacrylamide gel and transferred to PVDF membrane. Blots were probed with the indicated antibodies. For experiments using rat brain extracts, the extracts were prepared exactly as described above except that they were not passed through a 25 gauge needle. […]

GST-cypin = target: T2, GST-cypin (UniProt Q9WTT6 1-454); assay: competition co-immunoprecipitation of purified cypin (2 µM) and tubulin heterodimers (7 µM); ligand to be displaced: tubulin heterodimers; strip labelled α-Tubulin on the sheet
T2 construct: Expressed in E. coli, purified on glutathione sepharose, eluted with glutathione and dialysed; No removal of GST is reported; also called purified cypin; not shown: glutathione S-transferase (GST) fusion partner
T2 sequence (looked up): T1 sequence (looked up)
Experimental: GST, GST-cypin, and GST-snapin were expressed in E. coli and purified using glutathione sepharose as previously described (Firestein et al., 1999). Purified proteins were eluted from the beads using glutathione and dialyzed against phosphate buffered saline. Purified cypin (2 μM) and the indicated concentrations of purified snapin were mixed with tubulin heterodimers (7 μM) in PEM buffer (80 mM PIPES, pH 6.9, 2 mM MgCl₂, 0.5 mM EGTA) containing 5% glycerol for 4-6 hours at 4° C. The mixtures were subjected to immunoprecipitation using a monoclonal antibody raised against tubulin. Binding of purified proteins was assayed by SDS-PAGE followed by Western blotting using a rabbit polyclonal antibody raised against cypin (Akum et al., 2004).
Since snapin binds to cypin's CRMP homology domain, which is responsible for binding tubulin heterodimers (Akum et al., 2004), it is possible that snapin could compete tubulin binding to cypin. To address this question, co-immunoprecipitation of purified cypin and tubulin heterodimers in the presence of full-length snapin or the N-terminal half of snapin (amino acids 1-68) was performed. No association of snapin with tubulin heterodimers by co-immunoprecipitation or affinity chromatography was found in the previous experiments (data not shown). […]

[2] = target: PSD-95 (endogenous, rat brain extract) (rat, UniProt P31016 1-724, limits assumed); assay: co-immunoprecipitation from rat brain extract with anti-snapin
Experimental: (§1) For co-immunoprecipitation studies, one rat brain was homogenized in 10 ml of TEE (25 mM Tris, 1 mM EGTA, 1 mM EDTA)+1 mM PMSF. Triton X-100 was added to a final concentration of 1% and proteins were extracted for 1 hour at 4° C. The extract was centrifuged at 12,000×g to remove insoluble material and the supernatant was incubated with either anti-cypin, anti-snapin, preimmune serum, rabbit IgG, anti-tubulin, or mouse IgG. Protein A beads were added and after a 1 hour incubation, the beads were washed with TEE+0.2% Triton X-100. Immunoprecipitated proteins were eluted with protein loading buffer and resolved by SDS-PAGE and transferred to PVDF membrane. Blots were probed with the indicated antibodies. Experiments were performed in duplicate or triplicate.

[3] = target: SNAP-25 (endogenous, rat brain extract) (rat, UniProt P60881 1-206); assay: as above
Experimental: as §1

PSD-95 (endogenous, rat brain extract), sequence (P31016 whole entry): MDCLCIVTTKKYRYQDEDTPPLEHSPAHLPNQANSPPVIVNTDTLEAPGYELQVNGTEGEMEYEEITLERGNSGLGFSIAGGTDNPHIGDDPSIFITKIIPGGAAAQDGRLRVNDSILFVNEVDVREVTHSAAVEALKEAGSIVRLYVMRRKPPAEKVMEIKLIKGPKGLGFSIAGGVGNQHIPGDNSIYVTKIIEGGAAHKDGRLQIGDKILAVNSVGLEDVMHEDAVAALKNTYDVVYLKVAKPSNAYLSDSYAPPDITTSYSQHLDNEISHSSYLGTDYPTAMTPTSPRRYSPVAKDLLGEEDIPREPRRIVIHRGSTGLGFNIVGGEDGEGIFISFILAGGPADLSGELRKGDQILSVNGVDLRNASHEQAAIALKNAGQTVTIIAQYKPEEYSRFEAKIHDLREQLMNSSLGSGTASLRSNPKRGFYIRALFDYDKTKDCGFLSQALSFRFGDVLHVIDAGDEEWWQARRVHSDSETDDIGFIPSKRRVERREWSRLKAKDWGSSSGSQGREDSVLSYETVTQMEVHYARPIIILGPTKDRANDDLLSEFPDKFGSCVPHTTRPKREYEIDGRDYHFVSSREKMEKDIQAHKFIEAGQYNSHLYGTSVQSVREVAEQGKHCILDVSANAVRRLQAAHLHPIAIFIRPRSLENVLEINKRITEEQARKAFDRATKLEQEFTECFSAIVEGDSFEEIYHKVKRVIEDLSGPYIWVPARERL
SNAP-25 (endogenous, rat brain extract), sequence (P60881 whole entry): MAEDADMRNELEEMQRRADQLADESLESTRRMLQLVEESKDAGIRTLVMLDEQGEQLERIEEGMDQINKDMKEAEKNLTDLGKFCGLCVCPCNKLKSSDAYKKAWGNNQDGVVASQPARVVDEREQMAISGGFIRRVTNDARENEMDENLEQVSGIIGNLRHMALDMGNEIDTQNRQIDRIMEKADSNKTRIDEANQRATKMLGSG

Binder | binding result [1] | binding result (GST-cypin) | binding result [2] | binding result [3]
B1 | no binding | no binding (tested: 4 µM) |  | 
B2 |  |  | no binding | no binding
